Read-outs that look alike come from different tables or passages of the source.

What all share (test): whole cell ELISA on immobilized PA103 strain, 50 µg/well IgG
A general note: An ELISA detects its analyte on a solid surface through an enzyme-linked reagent.

The target in assay [1] is PA4710 protein on the cell surface of Pseudomonas aeruginosa PA103 strain (Pseudomonas aeruginosa).
For assay [2] the target is unchanged. This is another data set of the same source.
For assay [3] the target is unchanged. The source holds these as a separate data set.

In the case of “negative control IgG fraction purified from control rat sera obtained by administering only adjuvant (antibody)”, the absorbance at 450 nm is 0.28 absorbance in assay [1], 0.244 absorbance in assay [2] and 0.092 absorbance in assay [3].

Source of the values: US20100330100A1.
